Experimental data from publication PMC11965522.

Assays:
Mre11;Rad50 full-length = Mre11;Rad50 full-length (Pyrococcus furiosus;Pyrococcus furiosus, UniProt Q8U1N9;P58301 1-426;1-882, |); assay: fluorescence polarization
[1] = biological target: Mre11 R160E;Rad50 full-length (Pyrococcus furiosus;Pyrococcus furiosus, UniProt Q8U1N9;P58301 1-426;1-882, R160E|); assay: fluorescence polarization
[2] = biological target: Mre11 K144E;Rad50 full-length (Pyrococcus furiosus;Pyrococcus furiosus, UniProt Q8U1N9;P58301 1-426;1-882, K144E|); assay: fluorescence polarization
Chain of Mre11 K144E;Rad50 full-length (P58301 whole entry, stated change not applied, one chain of several): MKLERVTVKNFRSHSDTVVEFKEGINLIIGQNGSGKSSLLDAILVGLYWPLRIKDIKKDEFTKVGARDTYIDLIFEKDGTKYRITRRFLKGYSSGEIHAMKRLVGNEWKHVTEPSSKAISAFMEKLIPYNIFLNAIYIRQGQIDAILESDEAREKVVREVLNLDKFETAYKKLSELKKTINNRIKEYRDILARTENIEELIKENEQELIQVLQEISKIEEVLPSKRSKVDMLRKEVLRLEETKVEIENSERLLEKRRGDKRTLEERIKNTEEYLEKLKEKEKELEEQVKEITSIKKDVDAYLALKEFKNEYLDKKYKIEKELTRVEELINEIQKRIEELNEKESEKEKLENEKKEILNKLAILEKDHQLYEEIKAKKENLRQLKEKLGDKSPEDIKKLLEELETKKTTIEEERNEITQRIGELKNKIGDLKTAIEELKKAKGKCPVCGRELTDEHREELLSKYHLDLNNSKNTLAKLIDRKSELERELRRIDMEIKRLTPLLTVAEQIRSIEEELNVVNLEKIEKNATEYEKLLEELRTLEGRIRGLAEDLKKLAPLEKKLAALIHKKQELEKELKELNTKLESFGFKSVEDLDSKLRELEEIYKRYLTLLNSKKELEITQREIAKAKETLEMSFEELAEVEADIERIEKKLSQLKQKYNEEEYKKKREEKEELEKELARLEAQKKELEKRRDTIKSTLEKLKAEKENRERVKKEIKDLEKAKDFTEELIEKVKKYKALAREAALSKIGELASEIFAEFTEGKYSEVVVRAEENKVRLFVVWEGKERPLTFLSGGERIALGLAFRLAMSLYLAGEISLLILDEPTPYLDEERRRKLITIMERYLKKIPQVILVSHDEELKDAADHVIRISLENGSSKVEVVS

Mre11;Rad50 R833E/R834E = Mre11;Rad50 R833E/R834E (Pyrococcus furiosus;Pyrococcus furiosus, UniProt Q8U1N9;P58301 1-426;1-882, |R833E;R834E); assay: fluorescence polarization
Chain of Mre11;Rad50 R833E/R834E (P58301 whole entry R833E/R834E, one chain of several): as the sequence (P58301 whole entry, stated change not applied, one chain of several) above, with R833E, R834E counted along it

Mre11;Rad50 S115E/S116E = Mre11;Rad50 S115E/S116E (Pyrococcus furiosus;Pyrococcus furiosus, UniProt Q8U1N9;P58301 1-426;1-882, |S115E;S116E); assay: fluorescence polarization
Chain of Mre11;Rad50 S115E/S116E (P58301 whole entry S115E/S116E, one chain of several): as the sequence (P58301 whole entry, stated change not applied, one chain of several) above, with S115E, S116E counted along it

Mre11;Rad50 K172E = Mre11;Rad50 K172E (Pyrococcus furiosus;Pyrococcus furiosus, UniProt Q8U1N9;P58301 1-426;1-882, |K172E); assay: fluorescence polarization
Chain of Mre11;Rad50 K172E (P58301 whole entry K172E, one chain of several): as the sequence (P58301 whole entry, stated change not applied, one chain of several) above, with K172E counted along it

Mre11;Rad50 R868E = Mre11;Rad50 R868E (Pyrococcus furiosus;Pyrococcus furiosus, UniProt Q8U1N9;P58301 1-426;1-882, |R868E); assay: fluorescence polarization
Chain of Mre11;Rad50 R868E (P58301 whole entry R868E, one chain of several): as the sequence (P58301 whole entry, stated change not applied, one chain of several) above, with R868E counted along it

[3] = biological target: Mre11 K111E;Rad50 full-length (Pyrococcus furiosus;Pyrococcus furiosus, UniProt Q8U1N9;P58301 1-426;1-882, K111E|); assay: fluorescence polarization
Chain of Mre11 K111E;Rad50 full-length (P58301 whole entry, stated change not applied, one chain of several): as the sequence (P58301 whole entry, stated change not applied, one chain of several) above

[4] = biological target: Mre11 K365E;Rad50 full-length (Pyrococcus furiosus;Pyrococcus furiosus, UniProt Q8U1N9;P58301 1-426;1-882, K365E|); assay: fluorescence polarization
Chain of Mre11 K365E;Rad50 full-length (P58301 whole entry K365E, one chain of several): as the sequence (P58301 whole entry, stated change not applied, one chain of several) above, with K365E counted along it

Mre11;Rad50NBD [5] = biological target: T1, Mre11;Rad50NBD (Pyrococcus furiosus;Pyrococcus furiosus, UniProt Q8U1N9;P58301;P58301 1-426;1-195;709-882, |); assay: NMR CSP
T1 sequence (P58301 1-195, chain 1 of 2): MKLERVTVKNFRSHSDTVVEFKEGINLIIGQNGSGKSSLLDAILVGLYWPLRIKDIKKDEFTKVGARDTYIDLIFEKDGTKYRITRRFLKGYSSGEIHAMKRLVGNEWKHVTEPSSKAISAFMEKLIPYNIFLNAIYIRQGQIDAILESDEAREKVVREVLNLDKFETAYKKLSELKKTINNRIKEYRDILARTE
T1 sequence (P58301 709-882, chain 2 of 2): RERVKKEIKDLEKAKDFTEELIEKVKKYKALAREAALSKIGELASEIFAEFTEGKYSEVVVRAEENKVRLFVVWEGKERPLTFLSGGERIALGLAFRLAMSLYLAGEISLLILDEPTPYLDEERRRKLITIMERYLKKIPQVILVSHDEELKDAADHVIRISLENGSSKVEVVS

Mre11;Rad50NBD [6] = biological target: T1, Mre11;Rad50NBD; assay: NMR PRE
Mre11;Rad50NBD [7] = biological target: T1, Mre11;Rad50NBD; assay: NMR CSP titration

Chain of Mre11 R160E;Rad50 full-length (P58301 whole entry, stated change not applied, one chain of several): as the sequence (P58301 whole entry, stated change not applied, one chain of several) above
Chain of Mre11;Rad50 full-length (P58301 whole entry, one chain of several): as the sequence (P58301 whole entry, stated change not applied, one chain of several) above

B1: 40-mer dsDNA (dsDNA)
DNA 1: GTGTTCGGACTCTGCCTCAAGACGGTAGTCAACGTGCTTG
DNA 2: CAAGCACGTTGACTACCGTCTTGAGGCAGAGTCCGAACAC
- Kd (Mre11;Rad50 full-length): 590 ± 50 nM
- Kd [1]: 960 ± 60 nM
- Kd [2]: 2120 ± 420 nM
- Kd (Mre11;Rad50 R833E/R834E): 1080 ± 130 nM
- Kd (Mre11;Rad50 S115E/S116E): 580 ± 60 nM
- Kd (Mre11;Rad50 K172E): 580 ± 30 nM
- Kd (Mre11;Rad50 R868E): 750 ± 70 nM
- Kd [3]: 1070 ± 110 nM
- Kd [4]: 710 ± 50 nM

B2: 50-bp dsDNA (dsDNA)
DNA 1: CTGCAGGGTTTTTGTTCCAGTCTGTAGCACTGTGTAAGACAGGCCAGATG
DNA 2: CATCTGGCCTGTCTTACACAGTGCTACAGACTGGAACAAAAACCCTGCAG
- binding result (Mre11;Rad50NBD [5]): binds

B3: hairpin 2S (structured_DNA)
DNA: CACGCACGTAGAAGCTTTTGCTTCTACGTGCGTGAC
modifications: phosphorothioate at nt 2
- binding result (Mre11;Rad50NBD [6]): binds

B4: hairpin 6S (structured_DNA)
DNA: CACGCACGTAGAAGCTTTTGCTTCTACGTGCGTGAC
modifications: phosphorothioate at nt 6
- binding result (Mre11;Rad50NBD [6]): binds

B5: hairpin 17S (structured_DNA)
DNA: CACGCACGTAGAAGCTTTTGCTTCTACGTGCGTGAC
modifications: phosphorothioate at nt 17
- binding result (Mre11;Rad50NBD [6]): binds

B6: hairpin 24S (structured_DNA)
DNA: CACGCACGTAGAAGCTTTTGCTTCTACGTGCGTGAC
modifications: phosphorothioate at nt 24
- binding result (Mre11;Rad50NBD [6]): binds

B7: hairpin 30S (structured_DNA)
DNA: CACGCACGTAGAAGCTTTTGCTTCTACGTGCGTGAC
modifications: phosphorothioate at nt 30
- binding result (Mre11;Rad50NBD [6]): binds

B8: hairpin 36S (structured_DNA)
DNA: CACGCACGTAGAAGCTTTTGCTTCTACGTGCGTGAC
modifications: phosphorothioate at nt 36
- binding result (Mre11;Rad50NBD [6]): binds

B9: 15-bp hairpin DNA (structured_DNA)
DNA: CACGCACGTAGAAGCTTTTGCTTCTACGTGCGTGAC
- Kd (Mre11;Rad50NBD [7]): ~5400 nM
